Measurements as given in article PMC2191694.

Columns and labels:
[1] = target: T1, Oct-2 (UniProt P09086 1-479); experiment: EMSA
[2] = target: T1, Oct-2; experiment: competition
[3] = target: T1, Oct-2; experiment: competition; remark: listed apart in the source

T1 sequence (P09086 whole entry): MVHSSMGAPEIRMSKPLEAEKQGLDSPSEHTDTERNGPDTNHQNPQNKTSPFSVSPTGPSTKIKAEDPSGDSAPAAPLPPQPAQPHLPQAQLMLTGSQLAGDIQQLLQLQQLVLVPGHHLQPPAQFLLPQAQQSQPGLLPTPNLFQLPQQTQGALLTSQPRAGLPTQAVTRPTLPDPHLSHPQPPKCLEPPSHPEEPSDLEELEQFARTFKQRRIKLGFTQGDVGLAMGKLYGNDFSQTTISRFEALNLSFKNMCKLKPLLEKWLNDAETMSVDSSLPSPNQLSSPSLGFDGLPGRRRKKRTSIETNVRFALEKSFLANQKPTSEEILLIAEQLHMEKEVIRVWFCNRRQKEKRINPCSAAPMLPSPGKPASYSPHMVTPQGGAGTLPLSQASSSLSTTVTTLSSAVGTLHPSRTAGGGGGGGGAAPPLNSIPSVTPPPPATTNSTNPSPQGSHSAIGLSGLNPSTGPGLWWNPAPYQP

B1: IL2-deltaOAP/OCT (dsDNA)
DNA 1: ATATGTAAAACATTT
DNA 2: AAATGTTTTACATAT
**Q.** Does B1 bind [1]?
**A.** Result: binds

B2: IL2-OAP/mOCT (dsDNA)
DNA 1: TTGAAAATATGTGTAATATAATACTCATTT
DNA 2: AAATGAGTATTATATTACACATATTTTCAA
**Q.** Does B2 bind [2]?
**A.** Result: no binding

B3: IL2-mOAP/OCT (dsDNA)
DNA 1: TTGAAAATATTTTTAATATGTAAAACATTT
DNA 2: AAATGTTTTACATATTAAAAATATTTTCAA
**Q.** Does B3 bind [3]?
**A.** Result: binds
